Data taken from patent US20110171235A1 (University of California, published 2011).
Numbering of substitutions follows the chain as printed. Read-outs that look alike come from different tables or passages of the source.

What was measured:
[1] = biological target: T1, botulinum neurotoxin type A (BoNT/A), purified holotoxin (Clostridium botulinum, UniProt P0DPI0 2-1296)
[2] = biological target: T1, botulinum neurotoxin type A (BoNT/A), …; test: cell-based or functional assay
[3] = biological target: T1, botulinum neurotoxin type A (BoNT/A), …; remark: listed apart in the source
[4] = biological target: T1, botulinum neurotoxin type A (BoNT/A), …; test: yeast display
[5] = biological target: T1, botulinum neurotoxin type A (BoNT/A), …; remark: listed apart in the source
[6] = biological target: T1, botulinum neurotoxin type A (BoNT/A), …; test: yeast displayed scFv, flow cytometry
[7] = biological target: T1, botulinum neurotoxin type A (BoNT/A), …; test: Kinexa

B1: 3D12 scFv (scFv, V domains shown)
VH: QVQLVQSGGGVVHPGRSLKLSCAGSGFTFSDYDMHWVRQAPGKGLEWVAVMWFDGTEKYSAESVKGRFTISRDNSKNTLFLQMNSLRADDTAVYYCAREPDWLLWGDRGALDVWGQGTTVTVSS
VL: DIVMTQSPSTLSASVGDRVTITCRASQSISSWLAWYQQKPGKAPKLLMYEASSLESGVPSRFSGSGSGTEFTLTISSLQPDDFAAYYCQHYNTYPYTFGQGTKLEIK
Kd [1]: 943 pM | prolongation of time to neuroparalysis [2]: 1.5 fold

B2: RAZ1 IgG (antibody, V domains shown)
VH: B1 VH
VL: DIVMTQSPSTLSASVGDRVTITCWASQSISSRLAWYQQKPGKAPKLLMYEATSLGSGVPSRFSGSGSGTEFTLTISSLQPDDFAAYYCQHYDTYPYTFGQGTKLEIKR
fold higher affinity than 3D12 IgG [3]: 35 fold

B3: C25 scFv (scFv)
scFv: QVQLQESGGGLVKPGGSLKLSCAASGFTFSDYYMYWVRQTPEKRLEWVATISDGGSYTYYPDSVKGRFTISRDNAKNNLYLQMSSLKSEDTAMYYCSRYRYDDAMDYWGQGTTVTVSSGGGGSGGGGSGGGGSDIELTQSPASLAVSLGQRATISCRASESVDSYGHSFMQWYQQKPGQPPKLLIYRASNLEPGIPARFSGSGSGTDFTLTINPVEADDVATYYCQQSNEDPFTFGSGTKLEIKR
prolongation of time to neuroparalysis [2]: 2.7 fold

B4: AR4 scFv (scFv, V domains shown)
VH: QVQLQESGGGLVQPGGSLRLSCAASGFTFEEHYMYWVRQAPGKGLEWVATISDGGSYTYYPDSVEGRFTTSRDNSKNTLYLQMNSLRAEDTAIYYCSRYRYDDAMDYWGQGTLVTVSS
VL: EIVLTQSPATLSLSPGERATISCRASESVDSYGHSFMQWYQQKPGQAPRLLIYRASNLEPGIPARFSGSGSGTDFTLTISSLEPEDFAVYYCQQGNEVPFTFGQGTKVEIK
fold higher affinity than HuC25 scFv [4]: 37 fold | Kd [5]: 22.6 pM | Kd [6]: 23 pM

B5: AR1 scFv (scFv, V domains shown)
VH: B4 VH with E30S, E31D, H32Y, E65K, T70I
VL: B4 VL
Kd [6]: 169 pM | fold improvement of KD against HuC25 [6]: 5 fold

B6: AR4 IgG (antibody, V domains shown)
VH: B4 VH
VL: EIVLTQSPATLSLSPGERATISCRASESVDSYGHSFMQWYQQKPGQAPRLLIYRASNLEPGIPARFSGSGSGTDFTLTISSLEPEDFAVYYCQQGNEVPFTFGQGTKVEIKR
fold higher affinity than HuC25 IgG [7]: 34 fold

B7: AR2 scFv (scFv, V domains shown)
VH: B4 VH with E30S, E31D, E65K
VL: B4 VL
Kd [6]: 61.4 pM | fold increase against parental AR1 [6]: 2.8 fold

B8: HuC25 scFv (scFv, V domains shown)
VH: B4 VH with E30S, E31D, H32Y, E65K, T70I, I93M
VL: B4 VL with G95S, V98D
Kd [6]: 844 pM

B9: AR3 scFv (scFv, V domains shown)
VH: B4 VH with E30G
VL: B4 VL
Kd [6]: 19 pM
